One test addresses T1, Pep2 (human, N-terminal biotin).
T1 construct: Synthetic 20-mer of human IL-33
T1 peptide: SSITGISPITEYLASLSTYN
Nature of the test: ELISA, biotinylated peptide on streptavidin plate. The method, then: To determine the binding activity of antibody to each polypeptide fragment, the ELISA plate was pre-coated by biotin-avidin (SA) which was diluted in coating solution (50 mM carbonate coating buffer, pH 9.6) to 2 μg/ml at 4° C. overnight. The plate was washed with PBST for 3 times, and then blocked with 2% BSA prepared in PBS at room temperature for 2 h with 200 μL/well. The plate was washed once with PBST, and 864F3 and 874F7 with final concentrations of 10 μg/mL were added at 100 μL/well, respectively, and the plate was incubated at room temperature for 1 h. The plate was washed with PBST for 3 times, and the goat anti-mouse IgG labeled by HRP was added and placed at 37° C. for 30 min. After washing the plate with PBST for 3 times, the plate was patted on the absorbent paper to remove residual droplets as far as possible. 100 μl TMB developing solution was added to each well, and the plate was placed at room temperature (20±5° C.) for 5 minutes away from light; 50 μl 2M H₂SO₄ terminating solution was added to each well to terminate the substrate reaction. OD values were read at 450 nm on the microplate reader to analyze the binding ability of the antibody to each polypeptide fragment. The experimental results are shown in […]
(In general: ELISA stands for enzyme-linked immunosorbent assay.)

Test [1] has as its target T2, IL-33 mutant protein E44A (human, UniProt O95760 112-270).
T2 construct: Prokaryotic expression
T2 chain: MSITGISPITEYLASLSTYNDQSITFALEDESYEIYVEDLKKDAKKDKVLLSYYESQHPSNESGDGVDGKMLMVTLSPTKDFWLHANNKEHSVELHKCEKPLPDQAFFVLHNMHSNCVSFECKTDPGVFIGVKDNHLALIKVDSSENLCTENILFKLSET
As to the kind of experiment: ELISA as Example 9; row E44A against WT-1. The method, then:
SA protein was diluted to 2 μg/mL to coat ELISA plate at 100 μL/well overnight at 4° C. The plate was washed with PBST (PBS containing 0.05% Tween20) for 3 times, and blocked with 2% BSA prepared in PBS at 200 μL/well, at room temperature for 2 h. After the plate was washed twice with PBST, IL-33-his-biotin protein was diluted to 1 μg/mL with 1% BSA prepared in PBST, and was added to ELISA plate at 100 μL/well. The plate was incubated at room temperature for 1 h, and each monoclonal antibody was diluted with 1% BSA prepared in PBST in a 3-fold gradient. The highest concentration of antibody was 10 μg/mL, and the antibody was diluted for 12 gradients. Each diluted monoclonal antibody was added to ELISA wells with 100 μL/well, and the plate was incubated at room temperature for 1 h. Each sample was added to duplicate wells in parallel. The plate was washed with PBST for 3 times, and HRP-anti human IgG Fc secondary antibody prepared with PBST was diluted at an appropriate ratio, and was added to ELISA wells at 100 μL/well. […] Each reaction solution was shaken uniformly and OD450 nm was read on a microplate reader. The data was analyzed and EC₅₀ was calculated.
Subsequently, according to the experimental method of Example 9, the affinity of the above mutant proteins to 874F7-Hu1 was determined, and IL-33 proteins (WT-1, WT-2, WT-3, and WT-4) without any mutation were set as controls.

A further test deals with T3, Human IL-33-his (human, UniProt O95760 112-270, biotinylated with EZ-Link NHS-Biotin where used as IL-33-his-biotin).
T3 construct: Used plain (SPR, cell assays) and biotinylated (ELISA); also called IL-33-his-biotin
T3 sequence: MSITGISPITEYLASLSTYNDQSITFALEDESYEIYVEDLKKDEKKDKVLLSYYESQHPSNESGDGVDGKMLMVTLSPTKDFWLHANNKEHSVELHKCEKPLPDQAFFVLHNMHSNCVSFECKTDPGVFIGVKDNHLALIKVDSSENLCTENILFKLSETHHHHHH
As to the kind of experiment: SPR Biacore 8K as Example 14, antibody captured, antigen as analyte. On the procedure: (§1) A chip with covalently coupled Protein A/G (purchased from GE Healthcare, catalog number BR-1005-30) was used to capture each antibody to be tested, and the relevant operating parameters were as follows: The antibody concentration was […], the contact time was 75 s, the flow rate was […], and the regeneration contact time was 30 s. The IL-33-his antigen was diluted with HBS-EP pH7.4 buffer solution (purchased from GE Healthcare, catalog number BR-1006-69). The maximum concentration was 50 nM, and diluted to 0.39 nM by two-fold dilution. Duplicate wells and 0 concentration point well were set, and 6M guanidine hydrochloride solution was used as the regeneration buffer. The sample was injected on Biacore 8K according to the following parameters, the binding time was 180 s, the dissociation time was 900 s, the flow rate was 30 μL/min, and the regeneration contact time was 30 s. After running, Biacore 8K Evaluation Software was used to analyze the data according to the “1:1 binding kinetics model”, and the binding kinetics parameters of each antibody to IL-33 were obtained.
(§2) The experimental methods were referred to Example 14, in which the antigens cynomolgus IL-33 protein (purchased from Sino catalog number 90912-CNAE) and mouse IL-33 protein (purchased from R&D, 3626-ML-010/CF) were used, and human IL-33 protein was used as the control. Both 864F3-Hu4 and 874F7-Hu1 cross-react with cynomolgus IL-33 protein, and are consistent with the characteristics of each antibody binding to human IL-33 protein.
(In general: Surface plasmon resonance follows binding to a sensor surface in real time, without labels.)

A further test deals with T4, Cynomolgus IL-33-his (cynomolgus, UniProt A0A2K5W3I1 112-269, biotinylated in the ELISA of Example 6).
T4 construct: Bought protein; also called cynomolgus IL-33 protein; Cynomolgus monkeys IL-33
T4 sequence: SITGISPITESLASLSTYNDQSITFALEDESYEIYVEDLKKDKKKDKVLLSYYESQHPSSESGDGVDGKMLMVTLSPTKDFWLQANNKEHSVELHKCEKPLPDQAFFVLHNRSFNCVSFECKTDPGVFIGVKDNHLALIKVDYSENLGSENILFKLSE
Described as above. The method, then:
as §1, §2

The next test addresses T5, Mouse IL-33 protein (mouse, UniProt Q8BVZ5 109-266).
T5 construct: Bought protein
T5 sequence (looked up): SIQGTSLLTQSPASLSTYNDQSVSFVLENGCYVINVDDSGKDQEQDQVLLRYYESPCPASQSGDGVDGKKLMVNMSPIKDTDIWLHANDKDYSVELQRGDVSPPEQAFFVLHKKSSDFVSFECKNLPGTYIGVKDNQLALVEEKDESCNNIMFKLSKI
The description is as above. On the procedure: as §1, §2

B1: 874F7 (antibody, V domains shown)
VH: QVQLKESGPGLVAPSHSLSITCNVSGFSLSKYGVHWIRQIPGRGLDWLGVLRAGGSTGYNSALMSRLSISKDSSKSQVFLKMNDLRTDDTAVYFCVRDHYYYSSYGGFVYWGQGTLVTVSA
VL: DIQMTQSPASQSASLGESVTITCLASQTIGAWLAWYRQQPGKSPQLLIYAATRLADGVPSRFSGSGSGTEFSFKINNLQAEDFVSYYCQQLDSSPYTFGGGTRLEM
notes: Murine hybridoma antibody purified on Protein G; also called murine antibody 874F7
Take B1: the binding result in the test with Pep2 is on record as “no binding (tested: 10 µg/mL)”.

B2: 874F7-Hu1 (antibody, human IgG4 S228P, kappa)
heavy: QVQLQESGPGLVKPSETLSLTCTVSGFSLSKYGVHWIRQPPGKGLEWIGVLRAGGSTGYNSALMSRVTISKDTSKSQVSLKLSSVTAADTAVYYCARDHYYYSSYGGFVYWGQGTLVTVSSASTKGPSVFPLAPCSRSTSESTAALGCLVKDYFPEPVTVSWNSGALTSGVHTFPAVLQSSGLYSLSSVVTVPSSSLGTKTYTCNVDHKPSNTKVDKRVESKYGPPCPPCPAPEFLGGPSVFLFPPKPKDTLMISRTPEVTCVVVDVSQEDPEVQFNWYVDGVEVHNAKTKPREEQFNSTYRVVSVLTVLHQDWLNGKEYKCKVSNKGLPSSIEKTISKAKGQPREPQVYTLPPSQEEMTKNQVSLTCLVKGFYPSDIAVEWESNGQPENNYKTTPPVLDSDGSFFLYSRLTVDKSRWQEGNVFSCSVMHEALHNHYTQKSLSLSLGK
light: DIQMTQSPSSVSASVGDRVTITCLASQTIGAWLAWYQQKPGKSPKLLIYAATRLADGVPSRFSGSGSGTDFTLTISSLQPEDFATYYCQQLDSSPYTFGQGTKVEIKRTVAAPSVFIFPPSDEQLKSGTASVVCLLNNFYPREAKVQWKVDNALQSGNSQESVTEQDSKDSTYSLSSTLTLSKADYEKHKVYACEVTHQGLSSPVTKSFNRGEC
notes: also called 874F7-Hul; humanized antibody 874F7-Hu1
On to B2, for which the Affinity decline ratio in test [1] came to 0.6 fold. The Kd (in general, a measure of binding affinity in units of concentration) in the test with Human IL-33-his is 1.13 nM; with Cynomolgus IL-33-his, 1.27 nM; in the test with Mouse IL-33 protein it was 33.2 nM. In addition, the koff (as a rule, the first-order rate constant of dissociation) in the test with Human IL-33-his is 0.000204 s⁻¹; with Cynomolgus IL-33-his, 0.000349 s⁻¹; with Mouse IL-33 protein it was 0.00212 s⁻¹. Moreover, the on-rate (kon) (in general, the rate constant with which the complex forms) in the test with Human IL-33-his was determined as 180000 M⁻¹ s⁻¹; with Cynomolgus IL-33-his it was 273000 M⁻¹ s⁻¹; with Mouse IL-33 protein, 64000 M⁻¹ s⁻¹.

The values are drawn from patent US20230399394A1 (SUNSHINE GUOJIAN PHARMACEUTICAL SHANGHAI, published 2023).
